From patent US20080039419

T1: synthetic peptide representing the β1 integrin cytoplasmic domain, P05556
T1 chain: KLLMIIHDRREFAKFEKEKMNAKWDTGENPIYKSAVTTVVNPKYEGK

T2: synthetic peptide representing the β3 integrin cytoplasmic domain, P05106
T2 chain: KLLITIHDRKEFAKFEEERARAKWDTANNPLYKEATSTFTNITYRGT

B1: GST-ILK^232 (GST fusion of ILK amino acid residues 132-451) (protein)
chain: YGEMPVDKAKAPLRELLRERAEKMGQNLNRIPYKDTFWKGTTRTRPRNGTLNKHSGIDFKQLNFLTKLNENHSGELWKGRWQGNDIVVKVLKVRDWSTRKSRDFNEECPRLRIFSHPNVLPVLGACQSPPAPHPTLITHWMPYGSLYNVLHEGTNFVVDQSQAVKFALDMARGMAFLHTLEPLIPRHALNSRSVMIDEDMTARISMADVKFSFQCPGRMYAPAWVAPEALQKKPEDTNRRSADMWSFAVLLWELVTREVPFADLSNMEIGMKVALEGLRPTIPPGISPHVCKLMKICMNEDPAKRPKFDMIVPILEKMQD
B2: integrin linked kinase (ILK), full length (protein)
chain: MDDIFTQCREGNAVAVRLWLDNTENDLNQGDDHGFSPLHWACREGRSAVVEMLIMRGARINVMNRGDDTPLHLAASHGHRDIVQKLLQYKADINAVNEHGNVPLHYACFWGQDQVAEDLVANGALVSICNKYGEMPVDKAKAPLRELLRERAEKMGQNLNRIPYKDTFWKGTTRTRPRNGTLNKHSGIDFKQLNFLTKLNENHSGELWKGRWQGNDIVVKVLKVRDWSTRKSRDFNEECPRLRIFSHPNVLPVLGACQSPPAPHPTLITHWMPYGSLYNVLHEGTNFVVDQSQAVKFALDMARGMAFLHTLEPLIPRHALNSRSVMIDEDMTARISMADVKFSFQCPGRMYAPAWVAPEALQKKPEDTNRRSADMWSFAVLLWELVTREVPFADLSNMEIGMKVALEGLRPTIPPGISPHVCKLMKICMNEDPAKRPKFDMIVPILEKMQDK

Columns and labels:
[1] = biological target: T1, synthetic peptide representing the β1 …
[2] = biological target: T2, synthetic peptide representing the β3 …

| Protein | phosphorylation of the synthetic peptide by recombinant kinase in vitro [1] | phosphorylation of the synthetic peptide by recombinant kinase in vitro [2] | autophosphorylation of ILK in immune complex kinase assay [1] | phosphorylation of the synthetic peptide in ILK immune complex kinase assay (91-3 immunoprecipitates of PC3 lysates) [1] | phosphorylation of the synthetic peptide in ILK immune complex kinase assay (91-3 immunoprecipitates of PC3 lysates) [2] |
| --- | --- | --- | --- | --- | --- |
| B1 | The results demonstrating phosphorylation of synthetic β peptides by endogenous ILK are identical to those seen with recombinant GST-ILK^232 | The results demonstrating phosphorylation of synthetic β peptides by endogenous ILK are identical to those seen with recombinant GST-ILK^232 | – | – | – |
| B2 | – | – | The β1 peptide selectively inhibited autophosphorylation of ILK in these reactions | The β1 peptide was labeled on serine and threonine residues, with approximately equal stoichiometry | a similar peptide representing the β3 cytoplasmic domain was not detectably labeled by P59ILK |
